The target of assay [1] is T1, GPRC5D peptides containing sequence 230QFQRQPQWDDPVVC243 (ECL3) (human).
T1 construct: This is a stretch deduced from array peptides that contain it
T1 peptide: QFQRQPQWDDPVVC
Nature of the assay: Pepscan ELISA, set 1 (linear) compared with set 4 (loop), high stringency, 3 ug/ml. A general note: An ELISA detects its analyte on a solid surface through an enzyme-linked reagent.

Assay [2] concerns the target T2, GPRC5D peptide stretch 15LCDAEGPWG23 (N-term) (human).
T2 construct: This is a stretch deduced from array peptides that contain it
T2 peptide: LCDAEGPWG
Nature of the assay: Pepscan ELISA on peptide arrays, high stringency, 3 ug/ml. The procedure:
(§1) ELISA Screening—The binding of antibody to each of the synthesized peptides was tested in a PEPSCAN-based ELISA. The peptide arrays were incubated with primary antibody solution (overnight at 4° C.). After washing, the peptide arrays were incubated with a 1/1000 dilution of an appropriate antibody peroxidase conjugate (SBA) for one hour at 25° C. After washing, the peroxidase substrate 2,2′-azino-di-3-ethylbenzthiazoline sulfonate (ABTS) and 2 μl/ml of 3 percent H₂O₂ were added. After one hour, the color development was measured. The color development was quantified with a charge coupled device (CCD)—camera and an image processing system.

In assay [3] the target is T3, GPRC5D peptide stretch 5CIESTGDYFLLCD17 (N-term) (human).
T3 construct: This is a stretch deduced from array peptides that contain it
T3 peptide: CIESTGDYFLLCD
Nature of the assay: Pepscan ELISA on peptide arrays, high stringency, 1 ug/ml. The procedure:
as §1

In assay [4] the target is T4, GPRC5D peptide stretch 229PQFQRQPQW237 (ECL3) (human).
T4 construct: This is a stretch deduced from array peptides that contain it
T4 peptide: PQFQRQPQW
The experiment in a line: Pepscan ELISA on peptide arrays, moderate stringency, 1 ug/ml. The procedure: as §1

In assay [5] the target is T5, GPRC5D peptide stretch 16CDAEGPWGII25 (N-term) (human).
T5 construct: This is a stretch deduced from array peptides that contain it
T5 peptide: CDAEGPWGII
The assay is described as above. The protocol: as §1

These results are taken from US20180118803A1 (Memorial Sloan Kettering, published 2018).

B1: ET150-8 mIgG1 (antibody, V domains shown)
VH: QVQLVESGGGLVHPGGSLRLSCAASGFTFRSHSMNWVRQAPGKGLEWVSSISSDSTYTYYADSVKGRFTISRDNAKNSLYLQMNSLRAEDTAVYYCARSGGQWKYYDYWGQGTLVTVSS
VL: SSELTQDPAVSVALGQTVRITCQGDSLRSYYASWYQQKPGQAPVLVIYGKNNRPSGIPDRFSGSSSGNTASLTITGAQAEDEADYYCNSRDSSGNPPVVFGGGTKLTVLG
notes: also called ET150-158
B1: the binding result in assay [1] and in assay [2] was “binds” throughout.

B2: ET150-5 mIgG1 (antibody, V domains shown)
VH: EVQLVESGGGLVKPGGSLRLSCAASGFTFSDYYMSWIRQAPGKGLEWVSYISSSGSTIYYADSVKGRFTISRDNAKNSLYLQMNSLRAEDTAVYYCARGYGKAYDQWGQGTLVTVSS
VL: QSVLTQPPSASGTPGQRVTISCSGSRSNVGGNYVFWYQQVPGATPKLLIYRSNQRPSGVPDRFAGSKSGSSASLAISGLRSEDEADYYCATWDDSLSGFVFGTGTKVTVLG
notes: also called ET150-155
As to B2, the binding result in assay [3] is given as “binds”.

B3: ET150-2 mIgG1 (antibody, V domains shown)
VH: QMQLVQSGAEVKKPGASVKVSCKASGYTFNRYAITWVRQAPGQGLEWMGWISAYNGNSHYAQKLQGRVTMTTDTSTGTAYMELRRLRSDDTAVYYCARMAYDSWGQGTLVTVSS
VL: QSVLTQPASVSGSPGQSLTISCTGTSNDVGAYKYVSWYQQYPGKAPKLILYDVFKRPSGVSNRFSGSKSDNTASLTISGLQAEDEADYYCFSLTSSNTYVFGTGTKVTVLG
notes: also called ET150-152
For the molecule B3, the binding result in assay [4] and in assay [5] was “binds” throughout.
